Measured values from paper PMC7531860.

Molecular target: CfaE, tip-localized minor adhesive subunit of CFA/I fimbriae (enterotoxigenic Escherichia coli) (UniProt P25734)
Test: […], fluorescence at 320 nm; […]

mtCfaA (CfaA variant with the triple residue substitution T112I/L114I/V116I on the G1 strand) (natural protein)
mid-point dissociation concentration of GdnCl: 0.966 M
